We go through one molecule from article PMC3174691 (Journal of molecular biology, 2008).

The test has as its target T1, E. coli RecB (E. coli, UniProt P08394 1-1180).
T1 sequence (looked up): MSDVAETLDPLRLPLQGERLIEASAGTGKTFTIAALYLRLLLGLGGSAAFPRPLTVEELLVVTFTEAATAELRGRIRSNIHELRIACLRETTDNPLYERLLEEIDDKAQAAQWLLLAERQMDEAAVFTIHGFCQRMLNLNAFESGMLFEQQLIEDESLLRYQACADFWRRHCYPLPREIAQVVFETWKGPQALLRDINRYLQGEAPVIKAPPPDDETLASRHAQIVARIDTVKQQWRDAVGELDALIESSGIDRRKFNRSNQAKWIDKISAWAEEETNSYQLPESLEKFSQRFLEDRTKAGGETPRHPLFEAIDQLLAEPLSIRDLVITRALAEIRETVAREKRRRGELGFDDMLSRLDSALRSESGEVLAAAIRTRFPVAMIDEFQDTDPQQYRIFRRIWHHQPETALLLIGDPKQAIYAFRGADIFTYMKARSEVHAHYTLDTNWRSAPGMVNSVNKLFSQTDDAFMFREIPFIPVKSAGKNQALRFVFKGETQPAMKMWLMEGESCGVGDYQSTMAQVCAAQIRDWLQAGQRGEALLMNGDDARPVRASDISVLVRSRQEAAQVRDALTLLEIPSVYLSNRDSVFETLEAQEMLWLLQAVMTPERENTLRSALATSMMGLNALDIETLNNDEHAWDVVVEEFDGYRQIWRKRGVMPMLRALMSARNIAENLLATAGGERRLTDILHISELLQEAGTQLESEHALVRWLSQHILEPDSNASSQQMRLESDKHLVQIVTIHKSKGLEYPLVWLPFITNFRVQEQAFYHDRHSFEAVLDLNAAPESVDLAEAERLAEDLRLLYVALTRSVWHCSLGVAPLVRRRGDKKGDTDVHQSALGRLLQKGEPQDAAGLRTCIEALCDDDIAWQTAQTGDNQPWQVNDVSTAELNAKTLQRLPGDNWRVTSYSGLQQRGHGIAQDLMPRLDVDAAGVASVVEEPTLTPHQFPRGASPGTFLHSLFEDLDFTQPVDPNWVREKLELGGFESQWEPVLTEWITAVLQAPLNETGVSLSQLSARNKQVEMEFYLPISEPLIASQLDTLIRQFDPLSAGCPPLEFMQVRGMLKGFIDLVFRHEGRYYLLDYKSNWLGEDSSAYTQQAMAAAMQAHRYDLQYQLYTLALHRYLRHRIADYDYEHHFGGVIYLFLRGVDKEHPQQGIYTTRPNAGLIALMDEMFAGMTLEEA
Briefly: reconstitution of the complex by mixing.

B1: E. coli RecC (natural protein, UniProt P07648 1-1122, looked up)
chain: MLRVYHSNRLDVLEALMEFIVERERLDDPFEPEMILVQSTGMAQWLQMTLSQKFGIAANIDFPLPASFIWDMFVRVLPEIPKESAFNKQSMSWKLMTLLPQLLEREDFTLLRHYLTDDSDKRKLFQLSSKAADLFDQYLVYRPDWLAQWETGHLVEGLGEAQAWQAPLWKALVEYTHQLGQPRWHRANLYQRFIETLESATTCPPGLPSRVFICGISALPPVYLQALQALGKHIEIHLLFTNPCRYYWGDIKDPAYLAKLLTRQRRHSFEDRELPLFRDSENAGQLFNSDGEQDVGNPLLASWGKLGRDYIYLLSDLESSQELDAFVDVTPDNLLHNIQSDILELENRAVAGVNIEEFSRSDNKRPLDPLDSSITFHVCHSPQREVEVLHDRLLAMLEEDPTLTPRDIIVMVADIDSYSPFIQAVFGSAPADRYLPYAISDRRARQSHPVLEAFISLLSLPDSRFVSEDVLALLDVPVLAARFDITEEGLRYLRQWVNESGIRWGIDDDNVRELELPATGQHTWRFGLTRMLLGYAMESAQGEWQSVLPYDESSGLIAELVGHLASLLMQLNIWRRGLAQERPLEEWLPVCRDMLNAFFLPDAETEAAMTLIEQQWQAIIAEGLGAQYGDAVPLSLLRDELAQRLDQERISQRFLAGPVNICTLMPMRSIPFKVVCLLGMNDGVYPRQLAPLGFDLMSQKPKRGDRSRRDDDRYLFLEALISAQQKLYISYIGRSIQDNSERFPSVLVQELIDYIGQSHYLPGDEALNCDESEARVKAHLTCLHTRMPFDPQNYQPGERQSYAREWLPAASQAGKAHSEFVQPLPFTLPETVPLETLQRFWAHPVRAFFQMRLQVNFRTEDSEIPDTEPFILEGLSRYQINQQLLNALVEQDDAERLFRRFRAAGDLPYGAFGEIFWETQCQEMQQLADRVIACRQPGQSMEIDLACNGVQITGWLPQVQPDGLLRWRPSLLSVAQGMQLWLEHLVYCASGGNGESRLFLRKDGEWRFPPLAAEQALHYLSQLIEGYREGMSAPLLVLPESGGAWLKTCYDAQNDAMLDDDSTLQKARTKFLQAYEGNMMVRGEGDDIWYQRLWRQLTPETMEAIVEQSQRFLLPLFRFNQS
For the molecule B1, the binding result is given as “binds”.
